# Data as given in patent US20240240209A1, “SYNTHESIS OF ENANTIOPURE CIS-A-IRONE FROM A RENEWABLE CARBON SOURCE” (Agency for Science, Technology and Research, priority 2021, published 2024).
# Assay: Cell lysate reaction of pMT enzymes with psi-ionone, irones quantified by HS-SPME-GCMS
# Type: biochemical
# Settings: AUC vs non-mutated (=1)
# Method: Using the structure of pMT1 in complex with the cofactor S-adenosyl-L-homocysteine (SAH) and the substrate teleocidin A1 (PDB id: 5GM2) as a template, pMT1 bound to each of the four isomers of α-irone was modelled with the aim of identifying amino acid residues that could be critical to increase cis-α-irone or decrease trans-α-irone production (FIGS. 2d and 2e). […] Site-directed mutagenesis of the 24 residues was carried out with degenerative primers. Subsequently, the mutants of each site were pooled together, and examined if the activity or product-selectivity of the pooled mutants were increased (FIG. 8). This reduced the number of screening reactions to 24, which is manageable when a high-throughput enzymatic assay is not available. […] One residue was chosen and subjected to site-saturation mutagenesis by using degenerative primers containing NNN or NNK. The plasmid library was then transformed into E. coli BL21 (DE3) cells and plated on agar plate containing autoinduction media^19. […] Subsequently, the colonies were collected and resuspended in phosphate saline buffer. Equal number of cells was taken for lysis and cell lysate reactions were carried out in capped SPME-GC vials at 28° C. for 2 days. HS-SPME-GCMS analysis was used to quantify the amount of irones produced by each pooled-colony reaction. […] 24 residues including the control Gly85 (G85m) were subjected to site-saturation mutagenesis, using pMT1 as the template. […] The amount of cis-α-irone produced was estimated based on the area under the gas chromatogram curve (AUC). The fold change is calculated by comparing the AUC of cis-α-irone produced by the mutant enzyme to that of non-mutated.
# For each pMT mutant, it was transformed into BL21 and grown in autoinduction media with 5 mM lactose at 20° C. for 36 hrs. Then, cells were pelleted and concentrated 10 times by adding 1 ml of PBS. The OD600 was measured and 40*600 OD*ul cells were transferred into a new 1.5 ml tube. The cells were spun down and resuspended in 600 μl of lysis buffer (1×DNase buffer, 150 mM NaCl, 0.5% glycerol, 1 mg/ml lysozyme and 20U of DNasel). The cells were incubated for 2 hrs at 20° C. with shaking at 300 rpm. Following that, 2 cycles of freeze-thaw was done to completely lyse the cells. At the end of the 2nd thawing, the cell lysate was used to setup a 1 ml reaction in 2 ml GC vials. The reaction consisted of 50 mM Tris (pH7), 10 mM MgCl2, 60 mM NaCl, 0.2 mM SAM and 10 mg/L of psi-ionone and caryophyllene each. To this, 500 μl of cell lysate was added while the remaining 100 μl was used for SDS-PAGE to analyze the total and soluble protein expression. The reaction was incubated for 2 days at 28° C., 300 rpm prior to extraction of cis-α-irone with 500 μl hexane. From this, 20 μl of organic layer was taken into 180 μl hexane for GCMS analysis.
# For the mutant pMT activity screening, the reactants and products were analyzed by head space solid phase microextraction (HS-SPME) coupled with an Agilent 5977B gas chromatography (GC) system equipped with Agilent DB-5 ms column (30 m×250 μm×0.25 μm) and mass spectrometry (MS) with high efficiency source. The reaction mixtures were carried out in SPME vials which were incubated at 60° C. for 20 mins to allow the release of volatile compounds. The absorbent fiber (50/30 μm divinylbenzol/carboxen/polydimethyl-SPME fiber, SUPELCO) was then exposed to the headspace of the vial for 20 mins. The extracted analytes were desorbed at the GC inlet at 250° C. for 1 min and injected into GC with a split ratio of 200:1. The GC oven temperature increased from 50° C. to 140° C. at a rate of 10° C./min and held at 140° C. for 10 min. Subsequently, the temperature was increased to 320° C. at a rate of 60° C./min and held at 320° C. for 2 mins.
Molecule,fold change in cis-α-irone produced (pMT1_E153 mutants),fold change in cis-α-irone produced (pMT1_R160 mutants),further results
pMT1_E153K: pMT1 with E153K (protein) MPQEARTPQQQVTADEVGDWYDKFGEVYHLTLGESVHCGLWFPPDAPVPQDMELVTMSSQAQDRYTDYLIETLDPKAGQHLLDIGCGTGRTALKAARQRGIAVTGVAVSKEQIAAANRLAAGHGLTERLTFEVADAMRLPYEDESFDCAWAIKSLCHMDRAKALGEAWRVLKPGGDLLVLESVVTEELTEPETALFETLYAANVPPRLGEFFDIVSGAGFHTLSLKDLSANLAMTMNVFALGVYSRRAEFTERFGAEFVDGLLAGLGSAQETLIRKTRFFMATLRKPAV,0.0,,
pMT1_R160N (protein) MPQEARTPQQQVTADEVGDWYDKFGEVYHLTLGESVHCGLWFPPDAPVPQDMELVTMSSQAQDRYTDYLIETLDPKAGQHLLDIGCGTGRTALKAARQRGIAVTGVAVSKEQIAAANRLAAGHGLTERLTFEVADAMRLPYEDESFDCAWAIESLCHMDNAKALGEAWRVLKPGGDLLVLESVVTEELTEPETALFETLYAANVPPRLGEFFDIVSGAGFHTLSLKDLSANLAMTMNVFALGVYSRRAEFTERFGAEFVDGLLAGLGSAQETLIRKTRFFMATLRKPAV,,0.8,
pMT1_M236L: pMT1 with M236L (protein) MPQEARTPQQQVTADEVGDWYDKFGEVYHLTLGESVHCGLWFPPDAPVPQDMELVTMSSQAQDRYTDYLIETLDPKAGQHLLDIGCGTGRTALKAARQRGIAVTGVAVSKEQIAAANRLAAGHGLTERLTFEVADAMRLPYEDESFDCAWAIESLCHMDRAKALGEAWRVLKPGGDLLVLESVVTEELTEPETALFETLYAANVPPRLGEFFDIVSGAGFHTLSLKDLSANLAMTLNVFALGVYSRRAEFTERFGAEFVDGLLAGLGSAQETLIRKTRFFMATLRKPAV,,,fold change in cis-α-irone produced (pMT1_M236 mutants): 1.1
pMT1_Y200N (protein) MPQEARTPQQQVTADEVGDWYDKFGEVYHLTLGESVHCGLWFPPDAPVPQDMELVTMSSQAQDRYTDYLIETLDPKAGQHLLDIGCGTGRTALKAARQRGIAVTGVAVSKEQIAAANRLAAGHGLTERLTFEVADAMRLPYEDESFDCAWAIESLCHMDRAKALGEAWRVLKPGGDLLVLESVVTEELTEPETALFETLNAANVPPRLGEFFDIVSGAGFHTLSLKDLSANLAMTMNVFALGVYSRRAEFTERFGAEFVDGLLAGLGSAQETLIRKTRFFMATLRKPAV,,,fold change in cis-α-irone produced (pMT1_Y200 mutants): 0.0
pMT1_E153L: pMT1 with E153L (protein) MPQEARTPQQQVTADEVGDWYDKFGEVYHLTLGESVHCGLWFPPDAPVPQDMELVTMSSQAQDRYTDYLIETLDPKAGQHLLDIGCGTGRTALKAARQRGIAVTGVAVSKEQIAAANRLAAGHGLTERLTFEVADAMRLPYEDESFDCAWAILSLCHMDRAKALGEAWRVLKPGGDLLVLESVVTEELTEPETALFETLYAANVPPRLGEFFDIVSGAGFHTLSLKDLSANLAMTMNVFALGVYSRRAEFTERFGAEFVDGLLAGLGSAQETLIRKTRFFMATLRKPAV,0.0,,
pMT1_R160P: pMT1 with R160P (protein) MPQEARTPQQQVTADEVGDWYDKFGEVYHLTLGESVHCGLWFPPDAPVPQDMELVTMSSQAQDRYTDYLIETLDPKAGQHLLDIGCGTGRTALKAARQRGIAVTGVAVSKEQIAAANRLAAGHGLTERLTFEVADAMRLPYEDESFDCAWAIESLCHMDPAKALGEAWRVLKPGGDLLVLESVVTEELTEPETALFETLYAANVPPRLGEFFDIVSGAGFHTLSLKDLSANLAMTMNVFALGVYSRRAEFTERFGAEFVDGLLAGLGSAQETLIRKTRFFMATLRKPAV,,0.6,
pMT1_M236N: pMT1 with M236N (protein) MPQEARTPQQQVTADEVGDWYDKFGEVYHLTLGESVHCGLWFPPDAPVPQDMELVTMSSQAQDRYTDYLIETLDPKAGQHLLDIGCGTGRTALKAARQRGIAVTGVAVSKEQIAAANRLAAGHGLTERLTFEVADAMRLPYEDESFDCAWAIESLCHMDRAKALGEAWRVLKPGGDLLVLESVVTEELTEPETALFETLYAANVPPRLGEFFDIVSGAGFHTLSLKDLSANLAMTNNVFALGVYSRRAEFTERFGAEFVDGLLAGLGSAQETLIRKTRFFMATLRKPAV,,,fold change in cis-α-irone produced (pMT1_M236 mutants): 3.9
pMT1_E153N: pMT1 with E153N (protein) MPQEARTPQQQVTADEVGDWYDKFGEVYHLTLGESVHCGLWFPPDAPVPQDMELVTMSSQAQDRYTDYLIETLDPKAGQHLLDIGCGTGRTALKAARQRGIAVTGVAVSKEQIAAANRLAAGHGLTERLTFEVADAMRLPYEDESFDCAWAINSLCHMDRAKALGEAWRVLKPGGDLLVLESVVTEELTEPETALFETLYAANVPPRLGEFFDIVSGAGFHTLSLKDLSANLAMTMNVFALGVYSRRAEFTERFGAEFVDGLLAGLGSAQETLIRKTRFFMATLRKPAV,0.0,,
pMT1_R160M: pMT1 with R160M (protein) MPQEARTPQQQVTADEVGDWYDKFGEVYHLTLGESVHCGLWFPPDAPVPQDMELVTMSSQAQDRYTDYLIETLDPKAGQHLLDIGCGTGRTALKAARQRGIAVTGVAVSKEQIAAANRLAAGHGLTERLTFEVADAMRLPYEDESFDCAWAIESLCHMDMAKALGEAWRVLKPGGDLLVLESVVTEELTEPETALFETLYAANVPPRLGEFFDIVSGAGFHTLSLKDLSANLAMTMNVFALGVYSRRAEFTERFGAEFVDGLLAGLGSAQETLIRKTRFFMATLRKPAV,,0.9,
pMT1_Y200M: pMT1 with Y200M (protein) MPQEARTPQQQVTADEVGDWYDKFGEVYHLTLGESVHCGLWFPPDAPVPQDMELVTMSSQAQDRYTDYLIETLDPKAGQHLLDIGCGTGRTALKAARQRGIAVTGVAVSKEQIAAANRLAAGHGLTERLTFEVADAMRLPYEDESFDCAWAIESLCHMDRAKALGEAWRVLKPGGDLLVLESVVTEELTEPETALFETLMAANVPPRLGEFFDIVSGAGFHTLSLKDLSANLAMTMNVFALGVYSRRAEFTERFGAEFVDGLLAGLGSAQETLIRKTRFFMATLRKPAV,,,fold change in cis-α-irone produced (pMT1_Y200 mutants): 0.4
pMT1_R160L (protein) MPQEARTPQQQVTADEVGDWYDKFGEVYHLTLGESVHCGLWFPPDAPVPQDMELVTMSSQAQDRYTDYLIETLDPKAGQHLLDIGCGTGRTALKAARQRGIAVTGVAVSKEQIAAANRLAAGHGLTERLTFEVADAMRLPYEDESFDCAWAIESLCHMDLAKALGEAWRVLKPGGDLLVLESVVTEELTEPETALFETLYAANVPPRLGEFFDIVSGAGFHTLSLKDLSANLAMTMNVFALGVYSRRAEFTERFGAEFVDGLLAGLGSAQETLIRKTRFFMATLRKPAV,,0.9,
pMT1_E153M: pMT1 with E153M (protein) MPQEARTPQQQVTADEVGDWYDKFGEVYHLTLGESVHCGLWFPPDAPVPQDMELVTMSSQAQDRYTDYLIETLDPKAGQHLLDIGCGTGRTALKAARQRGIAVTGVAVSKEQIAAANRLAAGHGLTERLTFEVADAMRLPYEDESFDCAWAIMSLCHMDRAKALGEAWRVLKPGGDLLVLESVVTEELTEPETALFETLYAANVPPRLGEFFDIVSGAGFHTLSLKDLSANLAMTMNVFALGVYSRRAEFTERFGAEFVDGLLAGLGSAQETLIRKTRFFMATLRKPAV,0.0,,
